Measured values published in patent US20040053355A1, “Modular approach to on-line synthesis, drug discovery and biochemical transformations using immobilized enzyme reactors” (priority 2000, published 2004).

Key:
[1] = substrate: NCCc1ccc(O)cc1; experiment: DBH immobilized onto Glut-P stationary phase (DBH-Glut-P, DBH-Glut-P-SP), batch assay; format: biochemical, bovine; conditions: other: DBH-Glut-P (DBH-Glut-P-SP); 37.0 °C
Method: The enzyme was assayed as follows: four different solutions were prepared A, B, C and D (final concentration). (A) 500 μL of enzyme solution (10 μg/ml); B: 275 μL sodium acetate buffer (10 mM, pH 5.5), 50 μL cupric sulphate (5 μM); C: 25 μL catalase (5 μg/ml), 50 μL ascorbic acid (10 mM), 50 μl sodium fumarate (10 mM); D: 50 μl substrate (5 mM). Solution B was added to solution A, the resulting solution was mixed for 1 min. Solution C was added and the resulting solution was mixed for an additional minute. The reaction was started with the addition of the substrate (D), after which the reaction solution was incubated for 5 min at 37° C. in a shaking bath. […]
The packing material was washed three times with sodium acetate buffer (0.1M, pH 6). […] The enzyme solution (8-10 μg in 1 ml sodium acetate buffer] was added to the packing material, the mixture was vortexed for 2 min and then placed on a shaker/rotator for 6 h at ambient temperature. At the end of 6 h, the suspension was centrifuged, the supernatant decanted and the packing material washed three additional times with the buffer. The amount of residual enzyme was determined utilizing the same procedure as that carried out for the enzyme immobilized onto IAM.

[2] = substrate: NCCc1ccc(O)cc1; experiment: On-line DBH-Glut-P immobilized enzyme reactor (DBH-Glut-P IMER) HPLC system; format: biochemical, bovine; conditions: other: DBH-IMER (DBH-Glut-P IMER), 0.3 ml/min, contact time 10 min, 37° C.
From the text: DBH immobilized on the IAM or Glut-P stationary phase was packed into a 1 cm×10 mm guard (Regis Technologies). The guard was placed in a holder and the resulting column connected to a chromatographic system. THE DBH-IAM-IMER and the DBH-Glut-P-IMER was washed with sodium acetate buffer [0.1M, pH 5.5] and sodium acetate buffer [0.1M, pH 6.0], respectively. The eluent from both IMERs was collected in order to determine if any of the DBH was being washed off the columns. The Biorad assay was utilized to measure the amount of non-immobilized enzyme. When the columns were not in use they were washed with sodium acetate buffer at the respective pHs and stored at 4° C.
Pumps 2 and 3 on system 2 and 3 were stopped. […]
The enzymatic activity on the DBH-Glut-P was determined by quantification of the amount of product formed with a given substrate. […] The kinetic parameters were determined using standard Michaelis-Menten approach. […] The rates of reaction (Vmax) were calculated using […]mol/mg/min. Results are expressed as mean±standard error of the mean (SEM). […]

Row | Protein | Km [1] [µM] | Vmax [1] [µmol/mg/min] | Km [2] [µM] | Vmax [2] [µmol/mg/min]
1 | dopamine beta-hydroxylase immobilized onto Glut-P (DBH-Glut-P) (Bos taurus) (protein, purchased) MQVPSPSVREAASMYGTAVAVFLVILVAALQGSAPAESPFPFHIPLDPEGTLELSWNISYAQETIYFQLLVRELKAGVLFGMSDRGELENADLVVLWTDRDGAYFGDAWSDQKGQVHLDSQQDYQLLRAQRTPEGLYLLFKRPFGTCDPNDYLIEDGTVHLVYGFLEEPLRSLESINTSGLHTGLQRVQLLKPSIPKPALPADTRTMEIRAPDVLIPGQQTTYWCYVTELPDGFPRHHIVMYEPIVTEGNEALVHHMEVFQCAAEFETIPHFSGPCDSKMKPQRLNFCRHVLAAWALGAKAFYYPEEAGLAFGGPGSSRFLRLEVHYHNPLVITGRRDSSGIRLYYTAALRRFDAGIMELGLAYTPVMAIPPQETAFVLTGYCTDKCTQLALPASGIHIFASQLHTHLTGRKVVTVLARDGRETEIVNRDNHYSPHFQEIRMLKKVVSVQPGDVLITSCTYNTEDRRLATVGGFGILEEMCVNYVHYYPQTQLELCKSAVDPGFLHKYFRLVNRFNSEEVCTCPQASVPEQFASVPWNSFNREVLKALYGFAPISMHCNRSSAVRFQGEWNRQPLPEIVSRLEEPTPHCPASQAQSPAGPTVLNISGGKG | 1040 | 0.112 | – | –
2 | DBH-Glut-P IMER (immobilized dopamine beta-hydroxylase) (Bos taurus) (protein, purchased) MQVPSPSVREAASMYGTAVAVFLVILVAALQGSAPAESPFPFHIPLDPEGTLELSWNISYAQETIYFQLLVRELKAGVLFGMSDRGELENADLVVLWTDRDGAYFGDAWSDQKGQVHLDSQQDYQLLRAQRTPEGLYLLFKRPFGTCDPNDYLIEDGTVHLVYGFLEEPLRSLESINTSGLHTGLQRVQLLKPSIPKPALPADTRTMEIRAPDVLIPGQQTTYWCYVTELPDGFPRHHIVMYEPIVTEGNEALVHHMEVFQCAAEFETIPHFSGPCDSKMKPQRLNFCRHVLAAWALGAKAFYYPEEAGLAFGGPGSSRFLRLEVHYHNPLVITGRRDSSGIRLYYTAALRRFDAGIMELGLAYTPVMAIPPQETAFVLTGYCTDKCTQLALPASGIHIFASQLHTHLTGRKVVTVLARDGRETEIVNRDNHYSPHFQEIRMLKKVVSVQPGDVLITSCTYNTEDRRLATVGGFGILEEMCVNYVHYYPQTQLELCKSAVDPGFLHKYFRLVNRFNSEEVCTCPQASVPEQFASVPWNSFNREVLKALYGFAPISMHCNRSSAVRFQGEWNRQPLPEIVSRLEEPTPHCPASQAQSPAGPTVLNISGGKG | – | – | 2760 | 0.079
